Measurements: the supplement of paper PMC9112550, “Optimization of the antimicrobial peptide Bac7 by deep mutational scanning” (BMC Biology, 2022)

System: Escherichia coli TOP10
Assay: shrunken log2 fold change of peptide-encoding DNA abundance (4.5 h post-induction vs induction); higher = less antimicrobial activity (less host growth inhibition)
Settings: time post-induction: 4.5 h; library: site-saturation at positions 5, 18, 19, 20
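Further: peptides expressed intracellularly from a pBAD plasmid library in pooled LB shake-flask culture, induced with 0.3% L-arabinose, DNA abundance read by NGS, three biological replicates, DESeq2 with apeglm shrinkage.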

| Sequence | shrunken log2 fold change |
| --- | --- |
| RRIRWRPPRLPRPRPRPCRTPRP | 0.112 |
| RRIRYRPPRLPRPRPRPPENPRP | -0.145 |
| RRIRGRPPRLPRPRPRPITAPRP | 0.236 |
| RRIRSRPPRLPRPRPRPDKWPRP | 0.858 |
| RRIRVRPPRLPRPRPRPCKKPRP | -0.433 |
| RRIRWRPPRLPRPRPRPNNLPRP | -0.513 |
| RRIRWRPPRLPRPRPRPIKLPRP | -0.216 |
| RRIRGRPPRLPRPRPRPHAHPRP | 0.895 |
| RRIRNRPPRLPRPRPRPTIAPRP | -0.277 |
| RRIRMRPPRLPRPRPRPHYAPRP | -0.128 |
| RRIRLRPPRLPRPRPRPCFYPRP | -0.504 |
| RRIRFRPPRLPRPRPRPKEDPRP | 0.122 |
| RRIRCRPPRLPRPRPRPVPHPRP | 0.0468 |
| RRIRFRPPRLPRPRPRPQIPPRP | -0.475 |
| RRIRVRPPRLPRPRPRPISWPRP | 0.18 |
| RRIRMRPPRLPRPRPRPHIHPRP | -0.111 |
| RRIRERPPRLPRPRPRPDIDPRP | -0.191 |
| RRIRIRPPRLPRPRPRPHKSPRP | -1.18 |
| RRIRHRPPRLPRPRPRPYRPPRP | -0.115 |
| RRIRNRPPRLPRPRPRPRTCPRP | -0.257 |
| RRIRMRPPRLPRPRPRPSFVPRP | -0.0144 |
| RRIRWRPPRLPRPRPRPKGWPRP | 0.845 |
| RRIRERPPRLPRPRPRPTVLPRP | -0.0263 |
| RRIRERPPRLPRPRPRPRPLPRP | 0.176 |
| RRIRQRPPRLPRPRPRPIYQPRP | -0.647 |

| Sequence | shrunken log2 fold change |
| --- | --- |
| RRIRARPPRLPRPRPRPARTPRP | 0.584 |
| RRIRSRPPRLPRPRPRPSCGPRP | -0.0515 |
| RRIRYRPPRLPRPRPRPDYDPRP | -0.476 |
| RRIRLRPPRLPRPRPRPNPTPRP | -0.149 |
| RRIRCRPPRLPRPRPRPCTMPRP | -0.725 |
| RRIRQRPPRLPRPRPRPTHVPRP | -0.0938 |
| RRIRIRPPRLPRPRPRPDQSPRP | -0.138 |
| RRIRHRPPRLPRPRPRPYVIPRP | -0.00839 |
| RRIRWRPPRLPRPRPRPAESPRP | 0.0626 |
| RRIRNRPPRLPRPRPRPPSYPRP | -0.14 |
| RRIRIRPPRLPRPRPRPSVFPRP | -0.219 |
| RRIRPRPPRLPRPRPRPCPPPRP | -0.0276 |
| RRIRTRPPRLPRPRPRPHFNPRP | -0.556 |
| RRIRPRPPRLPRPRPRPAQVPRP | -0.0714 |
| RRIRHRPPRLPRPRPRPITIPRP | -0.124 |
| RRIRKRPPRLPRPRPRPDQVPRP | 0.0449 |
| RRIRARPPRLPRPRPRPLNFPRP | -0.249 |
| RRIRTRPPRLPRPRPRPKNRPRP | -0.0821 |
| RRIRPRPPRLPRPRPRPDDGPRP | -0.21 |
| RRIRVRPPRLPRPRPRPFRHPRP | -0.185 |
| RRIRLRPPRLPRPRPRPTMGPRP | 0.147 |
| RRIRYRPPRLPRPRPRPYYVPRP | 0.0372 |
| RRIRQRPPRLPRPRPRPIRIPRP | 0.0373 |
| RRIRARPPRLPRPRPRPCWRPRP | -0.0211 |
| RRIRKRPPRLPRPRPRPRIGPRP | 0.128 |

| Sequence | shrunken log2 fold change |
| --- | --- |
| RRIRARPPRLPRPRPRPSPMPRP | 0.173 |
| RRIRCRPPRLPRPRPRPQQVPRP | -0.29 |
| RRIRKRPPRLPRPRPRPDESPRP | 0.0701 |
| RRIRPRPPRLPRPRPRPSLCPRP | -0.0173 |
| RRIRARPPRLPRPRPRPPEFPRP | 0.558 |
| RRIRKRPPRLPRPRPRPLMAPRP | 0.635 |
| RRIRERPPRLPRPRPRPAQSPRP | 0.0517 |
| RRIRYRPPRLPRPRPRPIYPPRP | -0.559 |
| RRIRNRPPRLPRPRPRPCFIPRP | -0.86 |
| RRIRMRPPRLPRPRPRPCVLPRP | -2.47e-05 |
| RRIRQRPPRLPRPRPRPTENPRP | 0.0631 |
| RRIRTRPPRLPRPRPRPVCFPRP | -0.104 |
| RRIRIRPPRLPRPRPRPKATPRP | -0.141 |
| RRIRSRPPRLPRPRPRPEYKPRP | 0.0361 |
| RRIRLRPPRLPRPRPRPRMRPRP | 0.667 |
| RRIRQRPPRLPRPRPRPNFEPRP | -0.00188 |
| RRIRYRPPRLPRPRPRPLYGPRP | -0.82 |
| RRIRLRPPRLPRPRPRPCHCPRP | -0.0469 |
| RRIRHRPPRLPRPRPRPPDYPRP | 4.26 |
| RRIRVRPPRLPRPRPRPNCSPRP | 0.0892 |
| RRIRPRPPRLPRPRPRPEISPRP | -0.00759 |
| RRIRNRPPRLPRPRPRPHSRPRP | -0.0742 |
| RRIRTRPPRLPRPRPRPRHNPRP | -0.293 |
| RRIRARPPRLPRPRPRPKANPRP | 0.297 |
| RRIRDRPPRLPRPRPRPYQAPRP | -0.0283 |

| Sequence | shrunken log2 fold change |
| --- | --- |
| RRIRLRPPRLPRPRPRPEDDPRP | 0.0572 |
| RRIRMRPPRLPRPRPRPFYGPRP | 0.0715 |
| RRIRLRPPRLPRPRPRPYMMPRP | -0.594 |
| RRIRWRPPRLPRPRPRPWVPPRP | 0.00582 |
| RRIRARPPRLPRPRPRPRLDPRP | 0.291 |
| RRIRNRPPRLPRPRPRPPPYPRP | 0.534 |
| RRIRSRPPRLPRPRPRPNAFPRP | -0.0168 |
| RRIRHRPPRLPRPRPRPCNGPRP | -0.00865 |
| RRIRWRPPRLPRPRPRPDTGPRP | -0.373 |
| RRIRLRPPRLPRPRPRPNIFPRP | 0.104 |
| RRIRARPPRLPRPRPRPNSVPRP | 0.0162 |
| RRIRGRPPRLPRPRPRPSAEPRP | 2.33 |
| RRIRFRPPRLPRPRPRPCQHPRP | -0.397 |
| RRIRNRPPRLPRPRPRPKEAPRP | -0.00208 |
| RRIRYRPPRLPRPRPRPSNWPRP | -0.385 |
| RRIRARPPRLPRPRPRPMSCPRP | -0.114 |
| RRIRQRPPRLPRPRPRPQLYPRP | 0.119 |
| RRIRERPPRLPRPRPRPTVSPRP | -0.137 |
| RRIRKRPPRLPRPRPRPEQKPRP | 0.125 |
| RRIRIRPPRLPRPRPRPENFPRP | -0.0605 |
| RRIRHRPPRLPRPRPRPSQRPRP | -0.102 |
| RRIRFRPPRLPRPRPRPAAWPRP | 0.28 |
| RRIRCRPPRLPRPRPRPAMKPRP | -0.104 |
| RRIRLRPPRLPRPRPRPDWIPRP | -0.0697 |
| RRIRERPPRLPRPRPRPGKEPRP | 0.0125 |

| Sequence | shrunken log2 fold change |
| --- | --- |
| RRIRVRPPRLPRPRPRPCTGPRP | -1.78 |
| RRIRTRPPRLPRPRPRPAECPRP | -0.112 |
| RRIRNRPPRLPRPRPRPMNGPRP | 0.015 |
| RRIRWRPPRLPRPRPRPVFDPRP | 0.138 |
| RRIRSRPPRLPRPRPRPFFGPRP | 0.148 |
| RRIRCRPPRLPRPRPRPNLYPRP | -0.347 |
| RRIRLRPPRLPRPRPRPKMGPRP | 0.0108 |
| RRIRLRPPRLPRPRPRPPRQPRP | 0.688 |
| RRIRARPPRLPRPRPRPRMIPRP | 0.219 |
| RRIRQRPPRLPRPRPRPHKEPRP | 0.114 |
| RRIRVRPPRLPRPRPRPMYEPRP | -0.774 |
| RRIRTRPPRLPRPRPRPCSNPRP | -0.0243 |
| RRIRWRPPRLPRPRPRPEHTPRP | 0.489 |
| RRIRCRPPRLPRPRPRPIVWPRP | 0.102 |
| RRIRGRPPRLPRPRPRPCYLPRP | -0.177 |
| RRIRNRPPRLPRPRPRPSTKPRP | -0.0203 |
| RRIRVRPPRLPRPRPRPTLSPRP | -0.0525 |
| RRIRIRPPRLPRPRPRPALMPRP | -0.028 |
| RRIRDRPPRLPRPRPRPWTGPRP | -0.118 |
| RRIRARPPRLPRPRPRPKAKPRP | 0.287 |
| RRIRQRPPRLPRPRPRPTNMPRP | -0.521 |
| RRIRCRPPRLPRPRPRPALGPRP | 0.38 |
| RRIRARPPRLPRPRPRPCLNPRP | -0.424 |
| RRIRGRPPRLPRPRPRPICEPRP | 0.396 |
| RRIRTRPPRLPRPRPRPFKYPRP | -0.114 |
